Test results from paper PMC4735112, “The Functional Unit of Neisseria meningitidis 3-Deoxy-ᴅ-Arabino-Heptulosonate 7-Phosphate Synthase Is Dimeric” (PLoS ONE, 2016).

Columns and labels:
[1] = target: Neisseria meningitidis 3-deoxy-D-arabino-heptulosonate 7-phosphate synthase, R126S variant (N. meningitidis) (UniProt Q9K169); experiment: crystal structure
[2] = target: Neisseria meningitidis 3-deoxy-D-arabino-heptulosonate 7-phosphate synthase, R126S variant (N. meningitidis) (UniProt Q9K169); experiment: SAXS; SEC-coupled small angle X-ray scattering, 25°C, 10 mM BTP pH 7.5, 100 mM KCl, 200 μM PEP; initial 7 mg/mL (wild type) and 12 mg/mL (R126S) prior to SEC; CRYSOL fits to tetramer and tight dimer of the crystal structure
[3] = target: Neisseria meningitidis 3-deoxy-D-arabino-heptulosonate 7-phosphate synthase, R126S variant (N. meningitidis) (UniProt Q9K169); experiment: SEC
[4] = target: Neisseria meningitidis 3-deoxy-D-arabino-heptulosonate 7-phosphate synthase, R126S variant (N. meningitidis) (UniProt Q9K169); experiment: AUC; sedimentation velocity, 20°C, 10 mM BTP pH 7.3, 100 mM KCl, 200 μM PEP; 0.2, 0.4 and 1.2 mg/mL; continuous size distribution model (SEDFIT)

Substance: Neisseria meningitidis 3-deoxy-D-arabino-heptulosonate 7-phosphate synthase, R126S variant (from UniProt Q9K169 1-351) (enzyme)
- stoichiometry N [1]: 4
- stoichiometry N [2]: 2
- stoichiometry N [3]: 2
- stoichiometry N [4]: 2
